Assay results published in US5766896A, “Method of producing iodine by use of a copper containing oxidase enzyme” (Novo Nordisk Biotech Inc., priority 1994, dated 1998).

Experiments:
[1] = substrate: CCn1c(=NN=c2sc3cc(S(=O)(=O)O)ccc3n2CC)sc2cc(S(=O)(=O)O)ccc21; assay: purified protein, by the assay type
[2] = substrate: COc1cc(C=NN=Cc2cc(OC)c(O)c(OC)c2)cc(OC)c1O; assay: r-MtL syringaldazine oxidation; type: biochemical, Myceliophthora thermophila; details: other: optimal pH (7); 30.0 °C
Method: The extinction coefficient of 36 mM^-1 cm^-1 is used to calculate the rate. Spectroscopic assays are conducted on either a spectrophotometer (Shimadzu UV160) or a microplate reader (Molecular Devices).

[3] = other: from dependence of I^- oxidation rates on ABTS concentration, 20.0 °C
[4] = other: optimal pH of 4.1, pH 4.1, 30.0 °C

B1: ceruloplasmin (porcine plasma) (Sus scrofa) (protein)
chain: KDKHYYIGIVETTWDYASDRGEKKLISVDKEQSNIYLQNGPNRIGRLYKKAIYLQYTDETFRTIIEKPVWLGFLGPIIKAETGDRVYVHFKNFASRPYTFHAHGMTYYKEHEGAIYPDNTTDFQKADDKVHPGEQYTYILHANPEQGPGKEDSNCVTRIYHSHIDAPKDIASGLIGPLIHCRKDSLDKEKEKNIDQEFVVMFSVVDENLSWYLEDNIKTYCSEPEKVEPDNEDFKESNRMYSVNGYSFGSLPGLSMCAEDRVKWYLFGMGNEIDVHAAFFHGQVLTNKNYRIDTINLFPATLFDAFMVAQNPGEWMLSCQNLNHLKAGLQAFFRVQDCKKTSSEDAIHGKHVRHYYIAAEEIIWNYAPSGIDTFTKENLTAPGSASEVFFTRGSTRIGGSYKKLVYREYKDASFTNRKERGPEEEHLGILGPVIWAEVGDTIRVTFRNKGAYPLSIEPTGVRVSKSQEGTYYASHYISSSENVPPSASHVAPKETFTYEWTVPKEVGPTYKDPVCLTKMYYSAVDPTKDIFTGLIGPMKICKKGSLLANGRLKDVDKEFYLFPTVFDENESLLLDDNIQMFTTEPNKVDKENEDFQESNKMHSMNGFMYGNQPGLNMCQGDSVVWYLFSAGNEVDVHGIYFSGNTYLSRGERRDTANLFPQTSLRLFMQPDTAGTFDVECLTTDHYTGGMKQKYTVNQCKQLNENSYLYLGERTYYIAAVEVEWDYSPSREWEKELHHSQERNVSNAFLDKGEFYIGSKYKKVVYRQFTDSTFQVPVQRKAKEEHLGILGPQLHADVGDKVNIVFKNTATRPYSIHAHGVKTESPTVIPTVPGETRTYVWKIPERSGAGIDDSPCIPWVYYSTVDQVKDLYSGLIGPLIVCRKPYLKVFNPIKNLEFSLLFLVFDENESWYLDDNIKTYSDHPEKVDKANDEFIESNKMHAINGRMFGNLQGLTMHVGDEVNWYLMGMGNEIDLHTVHFHGHSFQYQHRGIYTSDVFDIFPGTYQTLEMFPKTSGTWLLHCHVTDHIHAGMETTYTVLPNEETKSG
B1 was tested, and the Km ([1]; other: pH 4.1, pH 4.1, 30.0 °C) was 0.11 ± 0.04 mM and the kcat ([1]; other: pH 4.1, pH 4.1, 30.0 °C) was 9.3±1.3 turnover per minute.

B2: recombinant Myceliophthora thermophila laccase (r-MtL) (Thermothelomyces thermophilus ATCC 42464) (protein)
chain: QQSCNTPSNRACWTDGYDINTDYEVDSPDTGVVRPYTLTLTEVDNWTGPDGVVKEKVMLVNRPTIFADWGDTIQVTVINNLETNGTSIHWHGLHQKGTNLHDGANGITECPIPPKGGRKVYRFKAQQYGTSWYHSHFSAQYGNGVVGAIQINGPASLPYDTDLGVFPISDYYYSSADELVELTKNSGAPFSDNVLFNGTAKHPETGEGEYANVTLTPGRRHRLRLINTSVENHFQVSLVNHTMTIIAADMVPVNAMTVDSLFLGVGQRYDVVIEASRTPGNYWFNVTFGGGLLCGGSRNPYPAAIFHYAGAPGGPPTDEGKAPVDHNCLDLPNLKPVVARDVPLSGFAKRPDNTLDVTLDTTGTPLFVWKVNGSAINIDWGRPVVDYVLTQNTSFPPGYNIVEVNGADQWSYWLIENDPGAPFTLPHPMHLHGHDFYVLGRSPDESPASNERHVFDPARDAGLLSGANPVRRDVTMLPAFGWVVLAFRADNPGAWLFHCHIAWHVSGGLGVVYLERADDLRGAVSDADADDLDRLCADWRHYWPTNPYPKSDSGL
B2 gave a Km [1, 3] of 0.0064 ± 0.0008 mM, a kcat [1, 3] of 860±40 turnover per minute and a Km ([1]; other: pH 4.1, pH 4.1) of 0.0056 ± 0.0005 mM. For the same protein, the kcat ([1]; other: pH 4.1, pH 4.1) was 1460±31 turnover per minute, the Km [2] was 10 µM and the kcat [2] was 400 turnover per minute.

B3: bilirubin oxidase (Myrothecium verrucaria) (Albifimbria verrucaria) (protein)
chain: VAQISPQYPMFTVPLPIPPVKQPRLTVTNPVNGQEIWYYEVEIKPFTHQVYPDLGSADLVGYDGMSPGPTFQVPRGVETVVRFINNAEAPNSVHLHGSFSRAAFDGWAEDITEPGSFKDYYYPNRQSARTLWYHDHAMHITAENAYRGQAGLYMLTDPAEDALNLPSGYGEFDIPMILTSKQYTANGNLVTTNGELNSFWGDVIHVNGQPWPFKNVEPRKYRFRFLDAAVSRSFGLYFADTDAIDTRLPFKVIASDSGLLEHPADTSLLYISMAERYEVVFDFSDYAGKTIELRNLGGSIGGIGTDTDYDNTDKVMRFVVADDTTQPDTSVVPANLRDVPFPSPTTNTPRQFRFGRTGPTWTINGVAFADVQNRLLANVPVGTVERWELINAGNGWTHPIHIHLVDFKVISRTSGNNARTVMPYESGLKDVVWLGRRETVVVEAHYAPFPGVYMFHCHNLIHEDHDMMAAFNATVLPDYGYNATVFVDPMEELWQARPYELGEFQAQSGQFSVQAVTERIQTMAEYRPYAAADE
With B3 the Km [1, 4] was 0.12 ± 0.01 mM and the kcat [1, 4] was 1310±40 turnover per minute.
